Values joined by “and” are separate entries in the source; they are usually repeats but may differ in a detail not shown here. Identical values can stand only once. Like-named read-outs stand apart in the source and are kept apart here.
Assays:
[1] = target: T1, recombinant SARS-CoV-2 Receptor Binding Domain (RBD) with a his tag (ATUM, Cat. 65639.1.a) (SARS-CoV-2, UniProt P0DTC2 319-541); test: ELISA on coated RBD-his
From the text: Plates were then washed 5 times with 0.05% PBS-Tween and blocked with 2% BSA-PBS. […] Luminescent data were collected on an EnVision plate reader (Perkin-Elmer) and analyzed with GraphPad Prism using a 4-parameter logistic model.

[2] = target: T1, recombinant SARS-CoV-2 Receptor Binding …
[3] = target: T2, SARS-CoV-2 spike protein, wild type, on live virus (SARS-CoV-2-mNG / USA-WA1/2020) (SARS-CoV-2, UniProt P0DTC2 13-1273); test: cell-based or functional assay
[4] = target: T2, SARS-CoV-2 spike protein, wild type, on …; test: cell-based or functional assay; remark: listed apart in the source
[5] = target: T2, SARS-CoV-2 spike protein, wild type, on …; test: cell-based or functional assay; remark: listed apart in the source
[6] = target: T2, SARS-CoV-2 spike protein, wild type, on …; test: cell-based or functional assay; remark: listed apart in the source
[7] = target: T2, SARS-CoV-2 spike protein, wild type, on …; test: cell-based or functional assay; remark: listed apart in the source
[8] = target: T2, SARS-CoV-2 spike protein, wild type, on …; test: cell-based or functional assay; remark: listed apart in the source

B1: anti-SARS-CoV2-16 IgM (antibody)
VH: QVQLHQWGAGLLKPSETLSRTCAVYGGSFSGYYWTWIRQAPGKGLEWIGEINHGGSTRYNPSLESRVSISVDTSKKQFSLELRSVTAADTAIYYCARGYDTNWYGDGYNWFDPWDRGTLVTVSS
VL: QAVVTQPPSVSGTPGQRVTISCSGSSSSIGSNTVHWYQHLPGTAPKLLMYNNNERPSGVPARFSGSKSGTSASLVITGLQADDEAEYYCQSYDTGLSGHVFGSGTELTVL
chain: not shown
B1 was tested, and the EC50 [1] was 0.3 nM and the “EC50 (read off the curve)” value [2] was about 0.3 nM.

B2: anti-SARS-CoV2-16 IgA1 (antibody)
VH: QVQLHQWGAGLLKPSETLSRTCAVYGGSFSGYYWTWIRQAPGKGLEWIGEINHGGSTRYNPSLESRVSISVDTSKKQFSLELRSVTAADTAIYYCARGYDTNWYGDGYNWFDPWDRGTLVTVSS
VL: QAVVTQPPSVSGTPGQRVTISCSGSSSSIGSNTVHWYQHLPGTAPKLLMYNNNERPSGVPARFSGSKSGTSASLVITGLQADDEAEYYCQSYDTGLSGHVFGSGTELTVL
chain: not shown
With B2 the EC50 [1] was 0.6 nM and the “EC50 (read off the curve)” value [2] was about 0.5 nM.

B3: anti-SARS-CoV2-09 IgA2m2 (antibody)
VH: QVQLHQWGAGLLKPSETLSRTCAVYGGSFSGYYWTWIRQAPGKGLEWIGEINHGGSTRYNPSLESRVSISVDTSKKQFSLELRSVTAADTAIYYCARGYDTNWYGDGYNWFDPWDRGTLVTVSS
VL: QSALTQDPSVSVALGQTVRITCQGDSLRGSFASWYRQKPGQAPVLVIFGINNRPSGVPDRFSGSSSGNTASLTITGAQAEDEADYYCNSRESNSNRILFGGGTKVTVL
chain: not shown
In the case of B3, the EC50 [1] is reported as 1.4 nM.

B4: anti-SARS-CoV2-09 IgA1 (antibody)
VH: QVQLHQWGAGLLKPSETLSRTCAVYGGSFSGYYWTWIRQAPGKGLEWIGEINHGGSTRYNPSLESRVSISVDTSKKQFSLELRSVTAADTAIYYCARGYDTNWYGDGYNWFDPWDRGTLVTVSS
VL: QSALTQDPSVSVALGQTVRITCQGDSLRGSFASWYRQKPGQAPVLVIFGINNRPSGVPDRFSGSSSGNTASLTITGAQAEDEADYYCNSRESNSNRILFGGGTKVTVL
chain: not shown
Binder B4 has an EC50 [1] of 1 nM.

B5: anti-SARS-CoV2-16 IgA2m2 (antibody)
VH: QVQLHQWGAGLLKPSETLSRTCAVYGGSFSGYYWTWIRQAPGKGLEWIGEINHGGSTRYNPSLESRVSISVDTSKKQFSLELRSVTAADTAIYYCARGYDTNWYGDGYNWFDPWDRGTLVTVSS
VL: QAVVTQPPSVSGTPGQRVTISCSGSSSSIGSNTVHWYQHLPGTAPKLLMYNNNERPSGVPARFSGSKSGTSASLVITGLQADDEAEYYCQSYDTGLSGHVFGSGTELTVL
chain: not shown
In the case of B5, the EC50 [1] is reported as 0.6 nM and the “EC50 (read off the curve)” value [2] is reported as about 0.6 nM.

B6: anti-SARS-CoV2-06 IgM (lambda-VL-kappa-CL hybrid light chain) (antibody)
VH: QVELQESGPGLVKPSGTLSLTCAVSGGSISSNNWWTWVRQPPGKGLEWIGEIHHSGGTNYNPSLKSRVTMSVDKSKNQFSLNLYSVTAADTAVYYCTRDRAGGTYSGFDFWGQGTLVTVSS
VL: QAVVTQPASVSGSPGQSITISCTGTSSDVGGYNYVSWYQQHPGKAPKLMIYDVSNRPSGVSNRFSGSKSGNTASLTISGLQAEDEADYYCSSYTSSSTVVFGGGTKVTVL
chain: not shown
With B6 the “EC50 (neutralization of live SARS-CoV-2-mNG)” value [3] was 0.06 µg/ml and 0.067 nM, the “Fold change of neutralization EC50 in nM (IgM-06 against IgG-06)” value [3] was 14.9 fold and the “Fold change of neutralization EC50 in µg/ml (IgM-06 against IgG-06)” value [3] was 2.5 fold. For the same binder, the “Neutralization EC50” value [4] was 0.059 µg/mL.

B7: anti-SARS-CoV2-06 IgG (lambda-VL-kappa-CL hybrid light chain) (antibody, V domains shown)
VH: QVELQESGPGLVKPSGTLSLTCAVSGGSISSNNWWTWVRQPPGKGLEWIGEIHHSGGTNYNPSLKSRVTMSVDKSKNQFSLNLYSVTAADTAVYYCTRDRAGGTYSGFDFWGQGTLVTVSS
VL: QAVVTQPASVSGSPGQSITISCTGTSSDVGGYNYVSWYQQHPGKAPKLMIYDVSNRPSGVSNRFSGSKSGNTASLTISGLQAEDEADYYCSSYTSSSTVVFGGGTKVTVL
In the case of B7, the “EC50 (neutralization of live SARS-CoV-2-mNG)” value [3] is reported as 0.15 µg/ml and 1 nM and the “Neutralization EC50” value [4] is reported as 0.22 µg/mL.

B8: anti-SARS-CoV2-14 IgG (lambda-VL-kappa-CL hybrid light chain) (antibody, V domains shown)
VH: EVQLQQSGPGLVKPSQTLSLTCAISGDSVSSNSAAWNWIRQSPSRGLEWLGRTYYRSKWYNDYAVSVKSRITINPDTSKNQFSLQLNSVTPEDTAVYYCAREEQQLVHDYYYYGMDVWGQGTMVTVSS
VL: QAVVTQPASVSGSPGQSITISCTGTSSDIGAYNYISWYQQHPGKAPKLIIYEVSNRPSGISYRFSGSKSGNTASLTISGLQAEDEANYYCSSYAGSISFGGGTKVTVL
B8 was tested, and the “Neutralization EC50” value [4] was 0.39 µg/mL and the “EC50 (neutralization of live SARS-CoV-2-mNG)” value [5] was 2.6 nM and 0.39 µg/ml.

B9: anti-SARS-CoV2-14 IgA1 (antibody)
VH: EVQLQQSGPGLVKPSQTLSLTCAISGDSVSSNSAAWNWIRQSPSRGLEWLGRTYYRSKWYNDYAVSVKSRITINPDTSKNQFSLQLNSVTPEDTAVYYCAREEQQLVHDYYYYGMDVWGQGTMVTVSS
VL: QAVVTQPASVSGSPGQSITISCTGTSSDIGAYNYISWYQQHPGKAPKLIIYEVSNRPSGISYRFSGSKSGNTASLTISGLQAEDEANYYCSSYAGSISFGGGTKVTVL
chain: not shown
In the case of B9, the EC50 [1] is reported as 1.9 nM.

B10: anti-SARS-CoV2-14 IgA2m2 (antibody)
VH: EVQLQQSGPGLVKPSQTLSLTCAISGDSVSSNSAAWNWIRQSPSRGLEWLGRTYYRSKWYNDYAVSVKSRITINPDTSKNQFSLQLNSVTPEDTAVYYCAREEQQLVHDYYYYGMDVWGQGTMVTVSS
VL: QAVVTQPASVSGSPGQSITISCTGTSSDIGAYNYISWYQQHPGKAPKLIIYEVSNRPSGISYRFSGSKSGNTASLTISGLQAEDEANYYCSSYAGSISFGGGTKVTVL
chain: not shown
In the case of B10, the EC50 [1] is reported as 14 nM.

B11: anti-SARS-CoV2-14 IgG (full lambda light chain) (antibody, V domains shown)
VH: EVQLQQSGPGLVKPSQTLSLTCAISGDSVSSNSAAWNWIRQSPSRGLEWLGRTYYRSKWYNDYAVSVKSRITINPDTSKNQFSLQLNSVTPEDTAVYYCAREEQQLVHDYYYYGMDVWGQGTMVTVSS
VL: QAVVTQPASVSGSPGQSITISCTGTSSDIGAYNYISWYQQHPGKAPKLIIYEVSNRPSGISYRFSGSKSGNTASLTISGLQAEDEANYYCSSYAGSISFGGGTKVTVL
B11 was tested, and the “Neutralization EC50” value [6] was 0.6 µg/mL, the “Neutralization EC50 (PRNT)” value [7] was 0.51 µg/mL and the “Neutralization EC50 (PRNT)” value [8] was 0.32 µg/mL.

B12: anti-SARS-CoV2-14 IgM (full lambda light chain) (antibody)
heavy: EVQLQQSGPGLVKPSQTLSLTCAISGDSVSSNSAAWNWIRQSPSRGLEWLGRTYYRSKWYNDYAVSVKSRITINPDTSKNQFSLQLNSVTPEDTAVYYCAREEQQLVHDYYYYGMDVWGQGTMVTVSSGSASAPTLFPLVSCENSPSDTSSVAVGCLAQDFLPDSITFSWKYKNNSDISSTRGFPSVLRGGKYAATSQVLLPSKDVMQGTDEHVVCKVQHPNGNKEKNVPLPVIAELPPKVSVFVPPRDGFFGNPRKSKLICQATGFSPRQIQVSWLREGKQVGSGVTTDQVQAEAKESGPTTYKVTSTLTIKESDWLSQSMFTCRVDHRGLTFQQNASSMCVPDQDTAIRVFAIPPSFASIFLTKSTKLTCLVTDLTTYDSVTISWTRQNGEAVKTHTNISESHPNATFSAVGEASICEDDWNSGERFTCTVTHTDLPSPLKQTISRPKGVALHRPDVYLLPPAREQLNLRESATITCLVTGFSPADVFVQWMQRGQPLSPEKYVTSAPMPEPQAPGRYFAHSILTVSEEEWNTGETYTCVVAHEALPNRVTERTVDKSTGKPTLYNVSLVMSDTAGTCY
light: QAVVTQPASVSGSPGQSITISCTGTSSDIGAYNYISWYQQHPGKAPKLIIYEVSNRPSGISYRFSGSKSGNTASLTISGLQAEDEANYYCSSYAGSISFGGGTKVTVLGQPKAAPSVTLFPPSSEELQANKATLVCLISDFYPGAVTVAWKADSSPVKAGVETTTPSKQSNNKYAASSYLSLTPEQWKSHRSYSCQVTHEGSTVEKTVAPTECS
chain: not shown
B12 was tested, and the “Neutralization EC50” value [6] was 0.0046 µg/mL, the “Fold-Increase in potency of IgM over IgG” value [7] was 46 fold and the “Neutralization EC50 (PRNT)” value [7] was 0.011 µg/mL. The “Fold-Increase in potency of IgM over IgG” value [8] was 61 fold and the “Neutralization EC50 (PRNT)” value [8] was 0.0052 µg/mL.

B13: anti-SARS-CoV2-26 IgA1 (antibody)
VH: not shown
VL: QSALTQPPSASGTPGQRVTISCSGSSSNIGSNSVNWYQQVPGTAPKLLIYANDHRPSGVPDRFSGSKSGTSASLAISGLQSEDEADYYCAAWDNSLKGVVFGGGTKVTVL
chain: not shown
With B13 the EC50 [1] was 1.8 nM.

B14: anti-SARS-CoV2-26 IgA2m2 (antibody)
VH: not shown
VL: QSALTQPPSASGTPGQRVTISCSGSSSNIGSNSVNWYQQVPGTAPKLLIYANDHRPSGVPDRFSGSKSGTSASLAISGLQSEDEADYYCAAWDNSLKGVVFGGGTKVTVL
chain: not shown
With B14 the EC50 [1] was 38 nM.
